Test results as given in publication PMC5602631, “Crimean-Congo hemorrhagic fever virus nucleocapsid protein has dual RNA binding modes”.
Several values for one entry are separate records, joined by “and”; a condition that tells them apart may be missing. Equal values may be shown once.

B1: 3' NCR (30 nt) (ssRNA)
RNA: UGGGCGUAAGCGGCACGUGUUUCUUUGAGA

Columns and labels:
[1] = molecular target: CCHFV nucleocapsid protein (N) (Crimean-Congo hemorrhagic fever virus strain 10200) (UniProt P89522); assay: filter binding; details: 40 mM Tris-HCl pH 7.4, 80 mM NaCl (or 250 mM), 20 mM KCl, 1 mM DTT, room temperature, 30-45 min
Chain of CCHFV nucleocapsid protein (N) (Crimean-Congo hemorrhagic fever virus strain 10200) (P89522 whole entry): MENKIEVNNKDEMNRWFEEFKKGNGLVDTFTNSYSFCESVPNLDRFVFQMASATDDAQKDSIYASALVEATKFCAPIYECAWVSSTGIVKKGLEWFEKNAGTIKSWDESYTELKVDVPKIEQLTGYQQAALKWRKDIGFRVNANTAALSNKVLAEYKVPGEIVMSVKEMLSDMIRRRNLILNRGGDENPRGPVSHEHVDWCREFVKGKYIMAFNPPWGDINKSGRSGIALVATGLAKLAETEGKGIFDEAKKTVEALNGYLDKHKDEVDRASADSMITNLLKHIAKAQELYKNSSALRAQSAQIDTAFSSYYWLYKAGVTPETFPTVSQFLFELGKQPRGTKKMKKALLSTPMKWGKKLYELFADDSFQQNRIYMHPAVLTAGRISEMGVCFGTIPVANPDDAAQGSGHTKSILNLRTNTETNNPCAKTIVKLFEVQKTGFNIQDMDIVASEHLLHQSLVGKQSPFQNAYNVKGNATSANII

[2] = molecular target: CCHFV nucleocapsid protein (N) (Crimean-Congo hemorrhagic fever virus strain 10200) (UniProt P89522); assay: tryptophan fluorescence; details: 40 mM Tris-HCl pH 7.4, 80 mM NaCl (or 250 mM), 20 mM KCl, 1 mM DTT, room temperature, 30-45 min
[3] = molecular target: CCHFV nucleocapsid protein (N) (Crimean-Congo hemorrhagic fever virus strain 10200) (UniProt P89522); assay: BLI; details: 40 mM Tris-HCl pH 7.4, 80 mM NaCl (or 250 mM), 20 mM KCl, 1 mM DTT, room temperature, 30-45 min
[4] = molecular target: CCHFV nucleocapsid protein (N) (Crimean-Congo hemorrhagic fever virus …, UniProt P89522 1-482); assay: competition; vs labeled 5' NCR; 40 mM Tris-HCl pH 7.4, 80 mM NaCl (or 250 mM), 20 mM KCl, 1 mM DTT, room temperature, 30-45 min; details: protein: recombinant; tags: His (C-terminal per Methods; Results says N-terminal); biotin (BLI); none (fluorescence); single strand
Chain of CCHFV nucleocapsid protein (N) (P89522 whole entry): as above

Row | Molecule | Kd [1] | Kd [2] | Kd [3] | binding result [4]
1 | 5' NCR 60 nt | 0.131 µM |  |  | 
2 | 5' NCR 100 nt | 0.131 µM |  |  | 
3 | 5' NCR (30 nt) | 0.121 µM and 0.147 µM | 0.167 µM | 0.131 µM | 
4 | CCHF S-segment vRNA | 0.055 µM |  |  | 
5 | Gluc RNA | 0.055 µM and 0.043 µM |  |  | 
6 | Nonviral ssRNA (30 nt) | 0.121 µM |  |  | 
7 | Wild type panhandle | 0.042 µM and 0.047 µM | 0.048 µM | 0.041 µM | 
8 | B1 |  |  |  | binds
